Assay results reported in patent US7563760 (GENETICS INSTITUTE, dated 2009).

T1: E-selectin expressed on CHO cells (CHO:E-selectin) (UniProt P16581 22-610, limits assumed)
T1 construct: whole, on cells; also called E-selectin expressing CHO cells; CHO cells which express E-selectin
T1 sequence (looked up): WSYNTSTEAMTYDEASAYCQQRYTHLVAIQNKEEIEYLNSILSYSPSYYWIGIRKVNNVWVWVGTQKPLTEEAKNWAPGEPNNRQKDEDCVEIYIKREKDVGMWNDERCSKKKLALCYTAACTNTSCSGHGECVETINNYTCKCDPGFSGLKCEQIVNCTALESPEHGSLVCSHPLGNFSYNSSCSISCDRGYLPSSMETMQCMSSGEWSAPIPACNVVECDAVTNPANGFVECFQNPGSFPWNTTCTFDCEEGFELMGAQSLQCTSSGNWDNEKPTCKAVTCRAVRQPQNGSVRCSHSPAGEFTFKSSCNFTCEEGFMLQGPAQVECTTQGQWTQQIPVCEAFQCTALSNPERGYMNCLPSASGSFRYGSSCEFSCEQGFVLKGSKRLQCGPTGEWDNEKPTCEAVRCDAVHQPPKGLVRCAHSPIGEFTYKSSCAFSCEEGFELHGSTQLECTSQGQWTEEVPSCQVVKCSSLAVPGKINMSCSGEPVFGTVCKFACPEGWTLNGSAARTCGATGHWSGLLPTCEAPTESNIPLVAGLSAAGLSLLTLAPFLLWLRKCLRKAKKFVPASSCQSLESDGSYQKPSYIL

T2: P-selectin expressed on the surface of CHO cells (CHO:P-selectin cell line) (UniProt P16109 42-830, limits assumed)
T2 construct: whole, on cells; also called P-selectin expressing CHO cells
T2 sequence (looked up): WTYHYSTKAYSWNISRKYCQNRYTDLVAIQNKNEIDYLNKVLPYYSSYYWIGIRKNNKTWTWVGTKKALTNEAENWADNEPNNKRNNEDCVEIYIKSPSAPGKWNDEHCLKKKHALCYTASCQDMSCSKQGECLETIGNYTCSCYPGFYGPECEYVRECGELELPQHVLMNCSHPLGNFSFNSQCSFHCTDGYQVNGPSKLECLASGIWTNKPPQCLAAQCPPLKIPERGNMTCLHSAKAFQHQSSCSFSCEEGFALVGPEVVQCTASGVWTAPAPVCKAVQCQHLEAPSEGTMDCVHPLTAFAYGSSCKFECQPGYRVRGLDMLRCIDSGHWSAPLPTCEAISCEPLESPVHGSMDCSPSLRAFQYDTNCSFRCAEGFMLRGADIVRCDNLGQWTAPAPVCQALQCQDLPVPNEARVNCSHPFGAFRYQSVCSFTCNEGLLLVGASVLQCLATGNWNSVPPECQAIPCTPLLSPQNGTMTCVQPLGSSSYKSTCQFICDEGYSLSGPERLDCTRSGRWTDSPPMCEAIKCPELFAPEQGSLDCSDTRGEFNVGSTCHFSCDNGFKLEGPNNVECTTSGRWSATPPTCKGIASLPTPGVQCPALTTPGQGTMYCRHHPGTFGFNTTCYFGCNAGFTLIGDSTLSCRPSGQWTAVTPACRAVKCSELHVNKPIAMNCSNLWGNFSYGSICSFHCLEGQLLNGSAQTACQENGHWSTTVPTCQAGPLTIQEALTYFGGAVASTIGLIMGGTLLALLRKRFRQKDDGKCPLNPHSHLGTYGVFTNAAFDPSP

T3: chimeric protein comprising the extracellular domain of human E-selectin and the Fc portion of human IgG1 … (human, UniProt P16581 22-556)
T3 construct: extracellular domain; Built analogously to LEC-γ1; also called soluble E-selectin chimera; immobilized E-selectin; not shown: Fc portion of human IgG1
T3 sequence (looked up): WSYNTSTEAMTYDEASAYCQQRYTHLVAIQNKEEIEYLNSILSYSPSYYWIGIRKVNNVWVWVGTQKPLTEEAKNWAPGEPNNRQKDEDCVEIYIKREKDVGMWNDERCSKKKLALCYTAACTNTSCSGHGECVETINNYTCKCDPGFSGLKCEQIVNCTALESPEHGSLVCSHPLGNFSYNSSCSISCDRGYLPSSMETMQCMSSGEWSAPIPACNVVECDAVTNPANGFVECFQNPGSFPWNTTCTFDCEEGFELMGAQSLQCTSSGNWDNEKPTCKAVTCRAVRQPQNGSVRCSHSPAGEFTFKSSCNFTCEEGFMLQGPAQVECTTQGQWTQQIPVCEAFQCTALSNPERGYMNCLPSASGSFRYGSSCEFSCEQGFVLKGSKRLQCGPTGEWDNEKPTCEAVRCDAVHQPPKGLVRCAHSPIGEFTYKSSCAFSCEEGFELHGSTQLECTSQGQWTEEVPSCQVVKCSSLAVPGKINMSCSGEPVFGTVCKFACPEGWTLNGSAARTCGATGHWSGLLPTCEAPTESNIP


Key:
[1] = molecular target: T1, E-selectin expressed on CHO cells …; experiment: plate coated with chimera; adhesion of 3H-labelled CHO:E-selectin cells (FIG. 15)
Protocol: (§1) Quantitative adhesion of CHO:P-selectin, CHO:E-selectin and CHO:L-selectin expressing cells was performed as described in Example 4(c), with the following modifications: COS cell and antibodies were omitted. Instead, 48-well microtiter plates (Costar) were coated for 16 hours at 4° C. with varying quantities of protein A-purified soluble PSGL-1/Fc chimeras. The unbound material was removed and the coated wells were treated with Hank's buffered saline (HBS) with 1 mg/ml BSA and 2 mM CaCl_2 for 1 hour at 4° C. Tritium labeled CHO selectin expressing cells were added and binding quantitated as described in Example 4(c).

[2] = molecular target: T2, P-selectin expressed on the surface of …; experiment: plate coated with chimera; adhesion of 3H-labelled CHO:P-selectin cells (FIG. 14)
Protocol: as §1

[3] = molecular target: T3, chimeric protein comprising the …; experiment: affinity precipitation from U937 membrane extracts; trace capture not excluded by the filing

| Binder | binding result [1] | binding result [2] | binding result [3] |
| --- | --- | --- | --- |
| ΔY148.Fc, amino acids 42-189 of SEQ ID NO:2 with amino acids 46-52 deleted (Fc fusion, glycosylated, co-expressed with 3/4FT, also called pED.ΔY148.Fc product; not shown: NotI junction/linker of pED.Fc; Fc region of a human IgG1) QATEFLPETEPPEMLRNSTDTTPLTGPGTPESTTVEPAARRSTGLDAGGAVTELTTELANMGNLSTDSAAMEIQTTQPAATEAQTTPLAATEAQTTRLTATEAQTTPLAATEAQTTPPAATEAQTTQPTGLEAQTTAPAAM | binds | no binding | – |
| CD43 (leukosialin) of U937 cells (other, human, UniProt P16150 20-400, looked up, native myeloid glycosylation) STTAVQTPTSGEPLVSTSEPLSSKMYTTSITSDPKADSTGDQTSALPPSTSINEGSPLWTSIGASTGSPLPEPTTYQEVSIKMSSVPQETPHATSHPAVPITANSLGSHTVTGGTITTNSPETSSRTSGAPVTTAASSLETSRGTSGPPLTMATVSLETSKGTSGPPVTMATDSLETSTGTTGPPVTMTTGSLEPSSGASGPQVSSVKLSTMMSPTTSTNASTVPFRNPDENSRGMLPVAVLVALLAVIVLVALLLLWRRRQKRRTGALVLSRGGKRNGVVDAWAGPAQVPEEGAVTVTVGGSGGDKGSGFPDGEGSSRRPTLTTFFGRRKSRQGSLAMEELKSGSGPSLKGEEEPLVASEDGAVDAPAPDEPEGGDGAAP | – | – | no binding |
